Data taken from US20100021987.

Key:
[1] = biological target: 6xHis-hSUMO-3-X-eGFP, X = A
[2] = biological target: 6xHis-hSUMO-3-X-eGFP, X = C
[3] = biological target: 6xHis-hSUMO-3-X-eGFP, X = D
[4] = biological target: 6xHis-hSUMO-3-X-eGFP, X = E
[5] = biological target: 6xHis-hSUMO-3-X-eGFP, X = F
[6] = biological target: 6xHis-hSUMO-3-X-eGFP, X = G
[7] = biological target: 6xHis-hSUMO-3-X-eGFP, X = H
[8] = biological target: 6xHis-hSUMO-3-X-eGFP, X = I
[9] = biological target: 6xHis-hSUMO-3-X-eGFP, X = K
[10] = biological target: 6xHis-hSUMO-3-X-eGFP, X = L
[11] = biological target: 6xHis-hSUMO-3-X-eGFP, X = N
[12] = biological target: 6xHis-hSUMO-3-X-eGFP, X = P
[13] = biological target: 6xHis-hSUMO-3-X-eGFP, X = Q
[14] = biological target: 6xHis-hSUMO-3-X-eGFP, X = R
[15] = biological target: 6xHis-hSUMO-3-X-eGFP, X = S
[16] = biological target: 6xHis-hSUMO-3-X-eGFP, X = T
[17] = biological target: 6xHis-hSUMO-3-X-eGFP, X = V
[18] = biological target: 6xHis-hSUMO-3-X-eGFP, X = W
[19] = biological target: 6xHis-hSUMO-3-X-eGFP, X = Y

B1: human SENP2 (hSENP2) SUMO protease catalytic domain (protein)
chain: MASLLELTEDMEKEISNALGHGPQDEILSSAFKLRITRGDIQTLKNYHWLNDEVINFYMNLLVERNKKQGYPALHVFSTFFYPKLKSGGYQAVKRWTKGVNLFEQEIILVPIHRKVHWSLVVIDLRKKCLKYLDSMGQKGHRICEILLQYLQDESKTKRNSDLNLLEWTHHSMKPHEIPQQLNGSDCGMFTCKYADYISRDKPITFTQHQMPLFRKKMVWEILHQQLLAAALEHHHHHH
- activity level (grade) (6xHis-AtSUMO1-eGFP): +
- cleavage, 2-fold enzyme dilution series, SDS-PAGE (6xHis-AtSUMO1-eGFP): Both hSENP2 and yUlp1 cleaved the AtSUMO1 fusion similarly
- activity level (grade) (6xHis-AtSUMO2-eGFP): +
- activity level (grade) (6xHis-T-SUMO-eGFP): +
- activity level (grade) (6xHis-hSUMO-1-eGFP): ++
- cleavage, 2-fold enzyme dilution series, SDS-PAGE; fold against yUlp1 (6xHis-hSUMO-1-eGFP): hSENP2 was able to cleave hSUMO-1 and ySmt3 fusions somewhat more effectively (about 2-fold) than yUlp1
- cleavage, time course, SDS-PAGE (6xHis-hSUMO-1-eGFP): both enzymes cleaving hSUMO-1-eGFP poorly
- Percent cleavage, enzyme:substrate 1:100 [1]: 99.6%
- Percent cleavage, enzyme:substrate 1:1000 [1]: 92.5%
- Percent cleavage, enzyme:substrate 1:100 [2]: 100%
- Percent cleavage, enzyme:substrate 1:1000 [2]: 98.5%
- Percent cleavage, enzyme:substrate 1:100 [3]: 99.5%
- Percent cleavage, enzyme:substrate 1:1000 [3]: 69.8%
- Percent cleavage, enzyme:substrate 1:100 [4]: 100%
- Percent cleavage, enzyme:substrate 1:1000 [4]: 92.2%
- Percent cleavage, enzyme:substrate 1:100 [5]: 100%
- Percent cleavage, enzyme:substrate 1:1000 [5]: 98.9%
- Percent cleavage, enzyme:substrate 1:100 [6]: 100%
- Percent cleavage, enzyme:substrate 1:1000 [6]: 98.9%
- Percent cleavage, enzyme:substrate 1:100 [7]: 100%
- Percent cleavage, enzyme:substrate 1:1000 [7]: 98.4%
- Percent cleavage, enzyme:substrate 1:100 [8]: 98.4%
- Percent cleavage, enzyme:substrate 1:1000 [8]: 56.2%
- Percent cleavage, enzyme:substrate 1:100 [9]: 100%
- Percent cleavage, enzyme:substrate 1:1000 [9]: 92.8%
- Percent cleavage, enzyme:substrate 1:100 [10]: 98.6%
- Percent cleavage, enzyme:substrate 1:1000 [10]: 75.2%
- Percent cleavage, enzyme:substrate 1:100 [11]: 96.2%
- Percent cleavage, enzyme:substrate 1:1000 [11]: 98.3%
- Percent cleavage, enzyme:substrate 1:100 [12]: 0%
- Percent cleavage, enzyme:substrate 1:1000 [12]: 0%
- Percent cleavage, enzyme:substrate 1:100 [13]: 95.9%
- Percent cleavage, enzyme:substrate 1:1000 [13]: 66.7%
- Percent cleavage, enzyme:substrate 1:100 [14]: 99.7%
- Percent cleavage, enzyme:substrate 1:1000 [14]: 98.7%
- Percent cleavage, enzyme:substrate 1:100 [15]: 99.6%
- Percent cleavage, enzyme:substrate 1:1000 [15]: 99.1%
- Percent cleavage, enzyme:substrate 1:100 [16]: 99%
- Percent cleavage, enzyme:substrate 1:1000 [16]: 82%
- Percent cleavage, enzyme:substrate 1:100 [17]: 100%
- Percent cleavage, enzyme:substrate 1:1000 [17]: 99.8%
- Percent cleavage, enzyme:substrate 1:100 [18]: 100%
- Percent cleavage, enzyme:substrate 1:1000 [18]: 99.4%
- Percent cleavage, enzyme:substrate 1:100 [19]: 100%
- Percent cleavage, enzyme:substrate 1:1000 [19]: 98.7%
- Kcat (6xHis-hSUMO-3-eGFP): Kcat = 0.33
- Kcat, fold difference against yUlp1 (6xHis-hSUMO-3-eGFP): about 12-fold difference in Kcat
- Km (6xHis-hSUMO-3-eGFP): Km = 2.41 mM
- Percent cleavage, enzyme:substrate 1:100 (6xHis-hSUMO-3-eGFP): 99.4%
- Percent cleavage, enzyme:substrate 1:1000 (6xHis-hSUMO-3-eGFP): 95.4%
- activity level (grade) (6xHis-hSUMO-3-eGFP): +++
- cleavage, 2-fold enzyme dilution series, SDS-PAGE; fold against yUlp1 (6xHis-hSUMO-3-eGFP): hSENP2 was able to cleave hSUMO-3-eGFP at least 4-fold better than an identical amount of yUlp1
- cleavage, time course, SDS-PAGE (6xHis-hSUMO-3-eGFP): providing nearly complete cleavage within 2 hrs.
- Kcat (6xHis-ySmt3-eGFP): Kcat = 0.75
- Kcat, fold difference against yUlp1 (6xHis-ySmt3-eGFP): about 2-fold difference in Kcat
- Km (6xHis-ySmt3-eGFP): Km = 2.72 mM
- activity level (grade) (6xHis-ySmt3-eGFP): +++++
- cleavage, 2-fold enzyme dilution series, SDS-PAGE; fold against yUlp1 (6xHis-ySmt3-eGFP): hSENP2 was able to cleave hSUMO-1 and ySmt3 fusions somewhat more effectively (about 2-fold) than yUlp1
- cleavage, time course, SDS-PAGE (6xHis-ySmt3-eGFP): both enzymes cleaving hSUMO-1-eGFP poorly and ySmt3-eGFP well

B2: Saccharomyces cerevisiae Ulp1 SUMO protease catalytic domain (protein)
chain: MGLVPELNEKDDDQVQKALASRENTQLMNRDNIEITVRDFKTLAPRRWLNDTIIEFFMKYIEKSTPNTVAFNSFFYTNLSERGYQGVRRWMKRKKTQIDKLDKIFTPINLNQSHWALGIIDLKKKTIGYVDSLSNGPNAMSFAILTDLQKYVMEESKHTIGEDFDLIHLDCPQQPNGYDCGIYVCMNTLYGSADAPLDFDYKDAIRMRRFIAHLILTDALKLEHHHHHH
- activity level (grade) (6xHis-AtSUMO1-eGFP): ++
- cleavage, 2-fold enzyme dilution series, SDS-PAGE (6xHis-AtSUMO1-eGFP): Both hSENP2 and yUlp1 cleaved the AtSUMO1 fusion similarly
- cleavage, time course, SDS-PAGE (6xHis-AtSUMO1-eGFP): cleaving not only T-SUMO but also AtSUMO1 and AtSUMO2 significantly better than did hSENP2
- activity level (grade) (6xHis-AtSUMO2-eGFP): ++
- cleavage, 2-fold enzyme dilution series, SDS-PAGE (6xHis-AtSUMO2-eGFP): a slight advantage in the cleavage of AtSUMO2-eGFP
- cleavage, time course, SDS-PAGE (6xHis-AtSUMO2-eGFP): cleaving not only T-SUMO but also AtSUMO1 and AtSUMO2 significantly better than did hSENP2
- activity level (grade) (6xHis-T-SUMO-eGFP): ++
- cleavage, 2-fold enzyme dilution series, SDS-PAGE (6xHis-T-SUMO-eGFP): yUlp1 had a distinct advantage in the cleavage of T-SUMO-eGFP
- cleavage, time course, SDS-PAGE (6xHis-T-SUMO-eGFP): cleaving not only T-SUMO but also AtSUMO1 and AtSUMO2 significantly better than did hSENP2
- activity level (grade) (6xHis-hSUMO-1-eGFP): +
- cleavage, time course, SDS-PAGE (6xHis-hSUMO-1-eGFP): both enzymes cleaving hSUMO-1-eGFP poorly
- Percent cleavage, enzyme:substrate 1:100 [1]: 96.3%
- Percent cleavage, enzyme:substrate 1:1000 [1]: 27.1%
- Percent cleavage, enzyme:substrate 1:100 [2]: 98.4%
- Percent cleavage, enzyme:substrate 1:1000 [2]: 25.3%
- Percent cleavage, enzyme:substrate 1:100 [3]: 92.3%
- Percent cleavage, enzyme:substrate 1:1000 [3]: 3.3%
- Percent cleavage, enzyme:substrate 1:100 [4]: 80.1%
- Percent cleavage, enzyme:substrate 1:1000 [4]: 11.3%
- Percent cleavage, enzyme:substrate 1:100 [5]: 95.4%
- Percent cleavage, enzyme:substrate 1:1000 [5]: 27%
- Percent cleavage, enzyme:substrate 1:100 [6]: 96.5%
- Percent cleavage, enzyme:substrate 1:1000 [6]: 27%
- Percent cleavage, enzyme:substrate 1:100 [7]: 90.8%
- Percent cleavage, enzyme:substrate 1:1000 [7]: 25.5%
- Percent cleavage, enzyme:substrate 1:100 [8]: 1.9%
- Percent cleavage, enzyme:substrate 1:1000 [8]: 0%
- Percent cleavage, enzyme:substrate 1:100 [9]: 22.4%
- Percent cleavage, enzyme:substrate 1:1000 [9]: 0%
- Percent cleavage, enzyme:substrate 1:100 [10]: 4.4%
- Percent cleavage, enzyme:substrate 1:1000 [10]: 0%
- Percent cleavage, enzyme:substrate 1:100 [11]: 97.9%
- Percent cleavage, enzyme:substrate 1:1000 [11]: 16.9%
- Percent cleavage, enzyme:substrate 1:100 [12]: 0%
- Percent cleavage, enzyme:substrate 1:1000 [12]: 0%
- Percent cleavage, enzyme:substrate 1:100 [13]: 65.5%
- Percent cleavage, enzyme:substrate 1:1000 [13]: 3.7%
- Percent cleavage, enzyme:substrate 1:100 [14]: 96.6%
- Percent cleavage, enzyme:substrate 1:1000 [14]: 17.2%
- Percent cleavage, enzyme:substrate 1:100 [15]: 98.2%
- Percent cleavage, enzyme:substrate 1:1000 [15]: 16.7%
- Percent cleavage, enzyme:substrate 1:100 [16]: 95.8%
- Percent cleavage, enzyme:substrate 1:1000 [16]: 14.3%
- Percent cleavage, enzyme:substrate 1:100 [17]: 20.2%
- Percent cleavage, enzyme:substrate 1:1000 [17]: 4%
- Percent cleavage, enzyme:substrate 1:100 [18]: 89.7%
- Percent cleavage, enzyme:substrate 1:1000 [18]: 16.8%
- Percent cleavage, enzyme:substrate 1:100 [19]: 96.9%
- Percent cleavage, enzyme:substrate 1:1000 [19]: 16.9%
- Kcat (6xHis-hSUMO-3-eGFP): Kcat = 0.027
- Km (6xHis-hSUMO-3-eGFP): Km = 15.8 mM
- Percent cleavage, enzyme:substrate 1:100 (6xHis-hSUMO-3-eGFP): 98.3%
- Percent cleavage, enzyme:substrate 1:1000 (6xHis-hSUMO-3-eGFP): 18.4%
- activity level (grade) (6xHis-hSUMO-3-eGFP): +
- cleavage, time course, SDS-PAGE (6xHis-hSUMO-3-eGFP): yUlp1 was able to cleave apparently less than half of the substrate in 4 hrs.
- Kcat (6xHis-ySmt3-eGFP): Kcat = 0.40
- Km (6xHis-ySmt3-eGFP): Km = 4.5 mM
- activity level (grade) (6xHis-ySmt3-eGFP): ++++
- cleavage, time course, SDS-PAGE (6xHis-ySmt3-eGFP): both enzymes cleaving hSUMO-1-eGFP poorly and ySmt3-eGFP well
